From patent US20240025949A1, “Beta-Arrestin Effectors and Compositions and Methods of Use Thereof” (Trevena, Inc., priority 2021, published 2024)
Where no end group is shown, it is not given here.

Key:
[1] = molecular target: T1, rat AT1aR (Rattus norvegicus, UniProt P25095); test: PathHunter β-arrestin-2 recruitment assay, rat AT1aR; assay type: cell-based; details: PathHunter β-arrestin HEK293 cells, inactive = EC50 greater than 10 uM
T1 construct: ProLink (β-galactosidase enzyme-donor fragment, from the pCMV-ProLink vector)
T1 sequence (P25095 1-359): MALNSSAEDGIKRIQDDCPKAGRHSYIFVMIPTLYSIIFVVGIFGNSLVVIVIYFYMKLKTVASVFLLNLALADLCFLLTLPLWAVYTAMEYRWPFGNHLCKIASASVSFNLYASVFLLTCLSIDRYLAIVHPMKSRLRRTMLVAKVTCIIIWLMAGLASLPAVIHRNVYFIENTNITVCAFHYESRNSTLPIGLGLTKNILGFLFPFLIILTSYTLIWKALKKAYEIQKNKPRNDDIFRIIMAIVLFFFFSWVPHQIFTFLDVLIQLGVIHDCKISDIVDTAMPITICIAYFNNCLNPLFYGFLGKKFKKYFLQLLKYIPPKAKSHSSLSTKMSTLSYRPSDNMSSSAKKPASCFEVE
Method: B-arrestin-2 recruitment to the human and rat angiotensin 2 type 1 receptor (human AT1R and rat AT1aR, respectively) was measured with the PathHunter™ β-arrestin assay (DiscoveRx Corporation, Fremont CA). Cells, plasmid(s), and detection reagent(s) were purchased from DiscoveRx, and assays were performed per the manufacturer's instructions. Human AT1R and rat AT1aR were cloned into the pCMV-ProLink vector, verified by sequencing, and transfected into PathHunter β-arrestin HEK293 cells. Stably transfected clonal cell lines were selected with Hygromycin and G418. These clonal cell lines were used for all experiments.
For assays, 25,000 cells were seeded per well in 96-well microplates in volumes of 90 μL and allowed to grow overnight at 37° C. in 5% CO2. Peptides provided herein were dissolved in deionized water to a concentration of 1 mM. Peptides were then further diluted in assay buffer (Hank's balanced salt solution with 20 mM HEPES) to add peptide to the cells to reach final concentrations ranging from 10 μM to 1 pM. […]
The microplates were then incubated at room temperature for 60 minutes, and then luminescence was measured using a NOVOstar microplate reader purchased from BMG Labtech. B-arrestin-2 recruitment to receptors was measured as relative luminescence intensity expressed in arbitrary units.

[2] = molecular target: human angiotensin 2 type 1 receptor (human) (UniProt P30556); test: cell-based or functional assay
[3] = molecular target: rat angiotensin 2 type 1 receptor (rat) (UniProt P25095); test: cell-based or functional assay

Chain of human angiotensin 2 type 1 receptor (human) (P30556 whole entry): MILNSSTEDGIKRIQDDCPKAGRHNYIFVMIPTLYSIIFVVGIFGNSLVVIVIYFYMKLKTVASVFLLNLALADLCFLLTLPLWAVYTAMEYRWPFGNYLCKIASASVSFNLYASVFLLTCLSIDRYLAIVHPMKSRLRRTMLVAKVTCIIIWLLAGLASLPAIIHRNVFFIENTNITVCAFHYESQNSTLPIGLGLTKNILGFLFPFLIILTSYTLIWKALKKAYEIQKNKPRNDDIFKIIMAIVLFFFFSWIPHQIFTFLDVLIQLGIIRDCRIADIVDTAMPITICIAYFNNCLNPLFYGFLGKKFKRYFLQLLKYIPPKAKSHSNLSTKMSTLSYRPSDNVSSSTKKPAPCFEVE

In the case of `CCCCC(=O)N(Cc1ccc(-c2ccccc2-c2nnn[nH]2)cc1)[C@H](C(=O)O)C(C)C` [Valsartan], the “rat AT1aR b-arrestin2 EC50 (M)” value [1] is reported as “inactive”.

In the case of ERVYYHP (N-methyl; C-terminal amide) [SEQ ID NO: 62 (N-Me-Glu-Arg-Val-Tyr-Tyr-His-Pro-NH2)], the IP One EC50 [2] is reported as over 10000 nM, the b-arrestin2 EC50 [2] is reported as 1300 nM and the b-arrestin2 Max [2] is reported as 24.7%. It also gave an IP One EC50 [3] of over 10000 nM, a b-arrestin2 EC50 [3] of 3900 nM and a b-arrestin2 Max [3] of 44.2%.

For DRVYFHP-NH2 [SEQ ID NO: 63 (Asp-Arg-Val-Tyr-Phe-His-Pro-NH2)], the IP One EC50 [2] was over 10000 nM, the b-arrestin2 EC50 [2] was 530 nM and the b-arrestin2 Max [2] was 35.9%. For the same molecule, the IP One EC50 [3] was over 10000 nM, the b-arrestin2 EC50 [3] was 530 nM and the b-arrestin2 Max [3] was 50.1%.

Work on RVYVHPI (N-terminal Sar; C-terminal acid) [SEQ ID NO: 11 (Sar-Arg-Val-Tyr-Val-His-Pro-Ile-OH)] yielded an IP One EC50 [2] of over 10000 nM, a b-arrestin2 EC50 [2] of 3.4 nM and a b-arrestin2 Max [2] of 58.9%. It also gave an IP One EC50 [3] of 3.5 nM, an IP One Max [3] of 24.4% and a b-arrestin2 EC50 [3] of 6.1 nM. For the same molecule, the b-arrestin2 Max [3] was 80.7%.

RVYVHPI (N-terminal Sar; C-terminal amide) [SEQ ID NO: 12 (Sar-Arg-Val-Tyr-Val-His-Pro-Ile-NH2)] showed an IP One EC50 [2] of 190 nM, an IP One Max [2] of 20.7% and a b-arrestin2 EC50 [2] of 390 nM. For the same molecule, the b-arrestin2 Max [2] was 19.9%, the IP One EC50 [3] was 79 nM and the IP One Max [3] was 44.9%. The b-arrestin2 EC50 [3] was 120 nM and the b-arrestin2 Max [3] was 34.4%.

In the case of RVYIHP-NH2 [SEQ ID NO: 13 (Arg-Val-Tyr-Ile-His-Pro-NH2)], the IP One EC50 [2] is reported as over 10000 nM, the b-arrestin2 EC50 [2] is reported as 4600 nM and the b-arrestin2 Max [2] is reported as 43.4%. The IP One EC50 [3] was over 10000 nM, the b-arrestin2 EC50 [3] was 43000 nM and the b-arrestin2 Max [3] was 165%.

With RVYYHPI (N-terminal Sar; C-terminal acid) [SEQ ID NO: 14 (Sar-Arg-Val-Tyr-Tyr-His-Pro-Ile-OH)] the IP One EC50 [2] was 160 nM, the IP One Max [2] was 13.5% and the b-arrestin2 EC50 [2] was 8 nM. For the same molecule, the b-arrestin2 Max [2] was 59.3%, the IP One EC50 [3] was 32 nM and the IP One Max [3] was 19.3%. For the same molecule, the b-arrestin2 EC50 [3] was 14 nM and the b-arrestin2 Max [3] was 79%.
